US20040175721A1 (UNIVERSITY OF MASSACHUSETTS A MASSACHUSETTS, published 2004)

B1: human centriolin Nud1 domain (amino acids 127-233 of centriolin) fused to the GAL4 transactivation domain (other, not shown: small tags and cut ends)
chain (part 1 of 2): ANFNQSGNIADSSLSFTFTNSSNGPNLITTQTNSQALSQPIASSNVHDNFMNNEITASKIDDGNNSKPLSPGWTDQTAYNAFGITTGMFNTTTMDDVYNYLFDDEDTPPNPKKE
chain (part 2 of 2): LEVLNLSYNLIGKIEKLDKLLKLRELNLSYNKISKIEGIENMCNLQKLNLAGNEIEHIPVWLGKKLKSLRVLNLKGNKISSLQDISKLKPLQDLISLILVENPVVTL
notes: also called TAD-hNud1; hNud1

Experiments:
[1] = target: T1, LexA-tagged budding yeast Bfa1p (pGP122, LexA-BFA1) (budding yeast, UniProt P47113 1-574, limits assumed); assay: directed yeast two-hybrid
T1 construct: Construct pGP122 obtained from Elmar Schiebel; also called LexA-Bfa1p; not shown: LexA part of the vector
T1 sequence (looked up): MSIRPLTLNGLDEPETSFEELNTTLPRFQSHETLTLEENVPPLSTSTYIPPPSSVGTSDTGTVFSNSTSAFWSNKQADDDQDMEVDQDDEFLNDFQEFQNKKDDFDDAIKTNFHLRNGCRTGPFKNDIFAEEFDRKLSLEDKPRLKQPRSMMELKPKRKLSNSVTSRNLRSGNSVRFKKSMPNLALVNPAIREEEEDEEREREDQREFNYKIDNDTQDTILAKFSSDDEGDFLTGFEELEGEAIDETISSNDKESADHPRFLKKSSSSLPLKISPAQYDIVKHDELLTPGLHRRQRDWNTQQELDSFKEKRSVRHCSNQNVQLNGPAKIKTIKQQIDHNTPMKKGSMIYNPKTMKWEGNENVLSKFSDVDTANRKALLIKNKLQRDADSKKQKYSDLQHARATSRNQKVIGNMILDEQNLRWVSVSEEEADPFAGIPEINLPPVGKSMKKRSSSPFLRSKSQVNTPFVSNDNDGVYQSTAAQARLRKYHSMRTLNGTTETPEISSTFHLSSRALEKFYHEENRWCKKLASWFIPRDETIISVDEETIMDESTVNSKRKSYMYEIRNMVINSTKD
Description: (§1) A 321 base pair fragment containing amino acids 127-233 of centriolin were cloned into EcoR I and Sal I sites of pGADT7 (Clontech) to produce a fusion with the GAL4 transactivation domain (TAD). Constructs pEG202 (LexA), pGP69 (LexA-BUB2), pGP122 (LexA-BFA1) and the yeast strain SGY37 were from Elmar Schiebel (Paterson Institute for Cancer Research, Manchester, U.K.). SGY37, which contains a LacZ reporter gene under control of a LexA operator, was transformed with plasmid DNA using LiAc (Ito et al., J Bacteriol, 153:163-168, 1983) and transformants selected for on dropout medium. Methods used were semi-quantitative β-galactosidase assays (Schramm et al., Methods Cell Biol., 67:71-94, 2001) and more quantitative β-galactosidase assays with CPRG (chlorophenol red-b-D-galactopyranoside, Roche) as a substrate per the manufacturer's instructions (Clontech Yeast Protocols Handbook). Co-immunopreciptation of LexA and GAL4 TAD fusion proteins were carried out as previously described (Schramm et al., Methods Cell Biol., 67:71-94, 2001).

[2] = target: B1; assay: directed yeast two-hybrid, TAD-hNud1 x LexA control
Description: as §1

[3] = target: T2, LexA-tagged budding yeast Bub2p (pGP69, LexA-BUB2) (budding yeast, UniProt P26448 1-306, limits assumed); assay: directed yeast two-hybrid, LexA-BUB2 x TAD control
T2 construct: Construct pGP69 obtained from Elmar Schiebel; also called LexA-Bub2p; not shown: LexA part of the pEG202-type vector
T2 sequence (looked up): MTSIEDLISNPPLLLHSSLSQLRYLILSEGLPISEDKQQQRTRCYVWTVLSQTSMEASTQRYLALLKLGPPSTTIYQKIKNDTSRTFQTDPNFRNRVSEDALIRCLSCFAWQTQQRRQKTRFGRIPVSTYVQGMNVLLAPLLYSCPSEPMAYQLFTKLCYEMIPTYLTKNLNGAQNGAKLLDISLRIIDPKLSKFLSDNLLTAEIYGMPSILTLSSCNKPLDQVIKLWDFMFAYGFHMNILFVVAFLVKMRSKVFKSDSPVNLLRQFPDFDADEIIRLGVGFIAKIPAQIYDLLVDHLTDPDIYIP
Description: as §1

## B1
[1]
  binding result: no binding

B2: LexA alone (pEG202) (other, UniProt P0A7C2 1-202, looked up)
chain: MKALTARQQEVFDLIRDHISQTGMPPTRAEIAQRLGFRSPNAAEEHLKALARKGVIEIVSGASRGIRLLQEEEEGLPLVGRVAAGEPLLAQQHIEGHYQVDPSLFKPNADFLLRVSGMSMKDIGIMDGDLLAVHKTQDVRNGQVVVARIDDEVTVKRLKKQGNKVELLPENSEFKPIVVDLRQQSFTIEGLAVGVIRNGDWL
[2]
  binding result: no binding

B3: GAL4 transactivation domain alone (other, UniProt P04386 768-881, looked up)
chain: ANFNQSGNIADSSLSFTFTNSSNGPNLITTQTNSQALSQPIASSNVHDNFMNNEITASKIDDGNNSKPLSPGWTDQTAYNAFGITTGMFNTTTMDDVYNYLFDDEDTPPNPKKE
notes: also called TAD
[3]
  binding result: no binding
